The supplement of paper PMC10567573

B1: FBF1 (parent)
chain: QLQCSPAELQAELLHSQARLAELE
B2: ZNF75A (parent)
chain: RTHTGEQPYTCSICRRNFSRRSSL

Variants of: B1
Assay: protein stability index of a GFP-peptide fusion (GPS, HEK-293T) (PSI 1-6); higher = more stable
Details: c terminus: a fixed tail appended
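Also: lentivirally expressed fusions sorted by FACS into six bins by GFP to DsRed ratio, PSI derived from sequencing read proportions per bin multiplied by bin number.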

Point of comparison: QLQCSPAELQAELLHSQARLALLE, protein stability index 1.98. Against it:
- QLQCSPAELQAELLHSQARLAELC — higher, 3.22
- QLQCSPAELQAELLHSQARLAELV — higher, 2.81
- QLQCSPAELQAELLHSQARLAELQ — higher, 3.29
- QLQCSPAELQAELLHSQARLAELL — higher, 2.41
- QLQCSPAELQAELLHSQARLAELF — higher, 2.32
- QLQCSPAELQAELLHSQARLAELD — higher, 2.45
- QLQCSPAELQAELLHSQARLAELH — higher, 3.56
- QLQCSPAELQAELLHSQARLAELT — higher, 3.54
- QLQCSPAELQAELLHSQARLAELY — higher, 2.36
- QLQCSPAELQAELLHSQARLAELI — higher, 3.06
- QLQCSPAELQAELLHSQARLAELP — higher, 3.18
- QLQCSPAELQAELLHSQARLAELR — higher, 3.16
- QLQCSPAELQAELLHSQARLAELN — higher, 3.29
- QLQCSPAELQAELLHSQARLAELK — higher, 3.44
- QLQCSPAELQAELLHSQARLAELA — higher, 3.75
- QLQCSPAELQAELLHSQARLAELG — higher, 3.23
- QLQCSPAELQAELLHSQARLAELW — higher, 2.47
- QLQCSPAELQAELLHSQARLAELS — higher, 2.99
- QLQCSPAELQAELLHSQARLAELM — higher, 2.83
- QLQCSPAELQAELLHSQARYAELE — higher, 4.12
- QLQCSPAELQAELLHSQARGAELE — higher, 4.74
- QLQCSPAELQAELLHSQARQAELE — higher, 5.33
- QLQCSPAELQAELLHSQARPAELE — higher, 4.76
- QLQCSPAELQAELLHSQARIAELE — higher, 3.59
- QLQCSPAELQAELLHSQARTAELE — higher, 4.66
- QLQCSPAELQAELLHSQARNAELE — higher, 4.96
- QLQCSPAELQAELLHSQARHAELE — higher, 4.05
- QLQCSPAELQAELLHSQARMAELE — higher, 3.87
- QLQCSPAELQAELLHSQARWAELE — higher, 4.22
- QLQCSPAELQAELLHSQARVAELE — higher, 3.34
- QLQCSPAELQAELLHSQARRAELE — higher, 4.62
- QLQCSPAELQAELLHSQARSAELE — higher, 4.7
- QLQCSPAELQAELLHSQARKAELE — higher, 4.66
- QLQCSPAELQAELLHSQARLAEME — higher, 3.38
- QLQCSPAELQAELLHSQARLAEYE — higher, 3.26
- QLQCSPAELQAELLHSQARLAECE — higher, 3.66
- QLQCSPAELQAELLHSQARLAENE — higher, 4.79
- QLQCSPAELQAELLHSQARLAEAE — higher, 4.59
- QLQCSPAELQAELLHSQARLAEVE — higher, 3.03
- QLQCSPAELQAELLHSQARLAEQE — higher, 4.98
- QLQCSPAELQAELLHSQARLAETE — higher, 4.18
- QLQCSPAELQAELLHSQARLAESE — higher, 4.84
- QLQCSPAELQAELLHSQARLAEHE — higher, 4
- QLQCSPAELQAELLHSQARLAERE — higher, 4.14
- QLQCSPAELQAELLHSQARLAEIE — higher, 2.59
- QLQCSPAELQAELLHSQARLAEDE — higher, 5.07
- QLQCSPAELQAELLHSQARLAEEE — higher, 4.48
- QLQCSPAELQAELLHSQARLAEGE — higher, 4.71
- QLQCSPAELQAELLHSQARLAEFE — higher, 2.75
- QLQCSPAELQAELLHSQARLAEWE — higher, 3.71
- QLQCSPAELQAELLHSQARLAEPE — higher, 4.03
- QLQCSPAELQAELLHSQARLAEKE — higher, 4.65
- QLQCSPAELQAELLHSQARLSELE — higher, 3.31
- QLQCSPAELQAELLHSQARLHELE — higher, 2.98
- QLQCSPAELQAELLHSQARLKELE — higher, 3.29
- QLQCSPAELQAELLHSQARLLELE — higher, 2.63
- QLQCSPAELQAELLHSQARLDELE — higher, 2.68
- QLQCSPAELQAELLHSQARLCELE — higher, 3.01
- QLQCSPAELQAELLHSQARLYELE — higher, 2.31
- QLQCSPAELQAELLHSQARLTELE — higher, 2.86
- QLQCSPAELQAELLHSQARLQELE — higher, 2.67
- QLQCSPAELQAELLHSQARLVELE — higher, 3.14
- QLQCSPAELQAELLHSQARLEELE — higher, 2.61
- QLQCSPAELQAELLHSQARLNELE — higher, 3.41
- QLQCSPAELQAELLHSQARLRELE — higher, 3.25
- QLQCSPAELQAELLHSQARLPELE — higher, 3.75
- QLQCSPAELQAELLHSQARLWELE — higher, 2.8
- QLQCSPAELQAELLHSQARLFELE — higher, 2.72
- QLQCSPAELQAELLHSQARLIELE — higher, 2.55
- QLQCSPAELQAELLHSQARLMELE — higher, 2.31
- QLQCSPAELQAELLHSQARLGELE — higher, 3.79
- QLQCSPAELQAELLHSQARLAILE — higher, 2.16
- QLQCSPAELQAELLHSQARLANLE — higher, 3.21
- QLQCSPAELQAELLHSQARLARLE — higher, 2.92
- QLQCSPAELQAELLHSQARLAALE — higher, 2.83
- QLQCSPAELQAELLHSQARLASLE — higher, 2.48
- QLQCSPAELQAELLHSQARLADLE — higher, 2.72
- QLQCSPAELQAELLHSQARLAGLE — higher, 2.91
- QLQCSPAELQAELLHSQARLAMLE — higher, 3.12
- QLQCSPAELQAELLHSQARLAQLE — higher, 2.53
- QLQCSPAELQAELLHSQARLAPLE — higher, 3.39
- QLQCSPAELQAELLHSQARLAWLE — higher, 2.76
- QLQCSPAELQAELLHSQARLAHLE — higher, 2.39
- QLQCSPAELQAELLHSQARLACLE — higher, 2.67
- QLQCSPAELQAELLHSQARLAFLE — higher, 2.25
- QLQCSPAELQAELLHSQARLATLE — higher, 2.34
- QLQCSPAELQAELLHSQARLAVLE — higher, 2.54
- QLQCSPAELQAELLHSQARLAKLE — higher, 2.99
- QLQCSPAELQAELLHSQARLAYLE — higher, 2.33

Variants of: B2
Assay: as above
Details: c terminus: a fixed tail appended

Point of comparison: RTHTVEQPYTCSICRRNFSRRSSL, protein stability index 2.76. Against it:
- ITHTGEQPYTCSICRRNFSRRSSL — higher, 3.06
- ATHTGEQPYTCSICRRNFSRRSSL — higher, 3.23
- NTHTGEQPYTCSICRRNFSRRSSL — higher, 3.26
- CTHTGEQPYTCSICRRNFSRRSSL — higher, 5.09
- HTHTGEQPYTCSICRRNFSRRSSL — higher, 3.93
- MTHTGEQPYTCSICRRNFSRRSSL — lower, 2.33
- PTHTGEQPYTCSICRRNFSRRSSL — higher, 3.15
- GTHTGEQPYTCSICRRNFSRRSSL — higher, 3.82
- QTHTGEQPYTCSICRRNFSRRSSL — lower, 2.4
- VTHTGEQPYTCSICRRNFSRRSSL — lower, 2.26
- STHTGEQPYTCSICRRNFSRRSSL — higher, 3.07
- ETHTGEQPYTCSICRRNFSRRSSL — higher, 3.62
- KTHTGEQPYTCSICRRNFSRRSSL — higher, 2.99
- WTHTGEQPYTCSICRRNFSRRSSL — lower, 2.67
- FTHTGEQPYTCSICRRNFSRRSSL — lower, 2.12
- YTHTGEQPYTCSICRRNFSRRSSL — lower, 2.46
- TTHTGEQPYTCSICRRNFSRRSSL — higher, 3.14
- LTHTGEQPYTCSICRRNFSRRSSL — lower, 2.28
- DTHTGEQPYTCSICRRNFSRRSSL — higher, 3.34
- RTNTGEQPYTCSICRRNFSRRSSL — higher, 3.82
- RTCTGEQPYTCSICRRNFSRRSSL — higher, 2.85
- RTITGEQPYTCSICRRNFSRRSSL — higher, 3.08
- RTVTGEQPYTCSICRRNFSRRSSL — lower, 2.65
- RTYTGEQPYTCSICRRNFSRRSSL — lower, 2.73
- RTGTGEQPYTCSICRRNFSRRSSL — the same, 2.76
- RTTTGEQPYTCSICRRNFSRRSSL — the same, 2.76
- RTDTGEQPYTCSICRRNFSRRSSL — higher, 3.18
- RTQTGEQPYTCSICRRNFSRRSSL — lower, 2.64
- RTLTGEQPYTCSICRRNFSRRSSL — lower, 2.75
- RTETGEQPYTCSICRRNFSRRSSL — higher, 3.1
- RTPTGEQPYTCSICRRNFSRRSSL — higher, 3.17
- RTMTGEQPYTCSICRRNFSRRSSL — lower, 2.57
- RTWTGEQPYTCSICRRNFSRRSSL — lower, 2.15
- RTRTGEQPYTCSICRRNFSRRSSL — higher, 3.47
- RTKTGEQPYTCSICRRNFSRRSSL — higher, 3.06
- RTATGEQPYTCSICRRNFSRRSSL — lower, 2.69
- RTSTGEQPYTCSICRRNFSRRSSL — higher, 3.16
- RTFTGEQPYTCSICRRNFSRRSSL — higher, 3.25
- RTHQGEQPYTCSICRRNFSRRSSL — lower, 2.33
- RTHNGEQPYTCSICRRNFSRRSSL — higher, 3.85
- RTHAGEQPYTCSICRRNFSRRSSL — higher, 2.8
- RTHLGEQPYTCSICRRNFSRRSSL — higher, 2.96
- RTHIGEQPYTCSICRRNFSRRSSL — higher, 3.36
- RTHPGEQPYTCSICRRNFSRRSSL — lower, 2.4
- RTHHGEQPYTCSICRRNFSRRSSL — higher, 3.03
- RTHSGEQPYTCSICRRNFSRRSSL — higher, 3.14
- RTHFGEQPYTCSICRRNFSRRSSL — higher, 3.28
- RTHRGEQPYTCSICRRNFSRRSSL — higher, 3.08
- RTHVGEQPYTCSICRRNFSRRSSL — higher, 3.29
- RTHGGEQPYTCSICRRNFSRRSSL — higher, 2.91
- RTHKGEQPYTCSICRRNFSRRSSL — higher, 2.77
- RTHCGEQPYTCSICRRNFSRRSSL — lower, 2.15
- RTHEGEQPYTCSICRRNFSRRSSL — higher, 3.27
- RTHYGEQPYTCSICRRNFSRRSSL — higher, 3.04
- RTHWGEQPYTCSICRRNFSRRSSL — lower, 2.1
- RTHDGEQPYTCSICRRNFSRRSSL — higher, 3.31
- RTHMGEQPYTCSICRRNFSRRSSL — lower, 2.66
- RTHTGAQPYTCSICRRNFSRRSSL — higher, 2.86
- RTHTGFQPYTCSICRRNFSRRSSL — higher, 3.33
- RTHTGDQPYTCSICRRNFSRRSSL — lower, 2.49
- RTHTGCQPYTCSICRRNFSRRSSL — higher, 3.96
- REHTGEQPYTCSICRRNFSRRSSL — higher, 2.78
- RQHTGEQPYTCSICRRNFSRRSSL — lower, 2.38
- RHHTGEQPYTCSICRRNFSRRSSL — higher, 3.33
- RFHTGEQPYTCSICRRNFSRRSSL — higher, 3.15
- RVHTGEQPYTCSICRRNFSRRSSL — higher, 2.88
- RAHTGEQPYTCSICRRNFSRRSSL — higher, 3.58
- RYHTGEQPYTCSICRRNFSRRSSL — higher, 2.81
- RKHTGEQPYTCSICRRNFSRRSSL — lower, 2.47
- RIHTGEQPYTCSICRRNFSRRSSL — lower, 2.63
- RMHTGEQPYTCSICRRNFSRRSSL — lower, 2.68
- RRHTGEQPYTCSICRRNFSRRSSL — higher, 3.46
- RWHTGEQPYTCSICRRNFSRRSSL — lower, 2.17
- RSHTGEQPYTCSICRRNFSRRSSL — lower, 2.53
- RGHTGEQPYTCSICRRNFSRRSSL — higher, 2.77
- RCHTGEQPYTCSICRRNFSRRSSL — higher, 3.17
- RNHTGEQPYTCSICRRNFSRRSSL — lower, 2.52
- RLHTGEQPYTCSICRRNFSRRSSL — higher, 2.82
- RDHTGEQPYTCSICRRNFSRRSSL — higher, 3.02
- RTHTIEQPYTCSICRRNFSRRSSL — higher, 3.82
- RTHTLEQPYTCSICRRNFSRRSSL — lower, 2.73
- RTHTFEQPYTCSICRRNFSRRSSL — higher, 3.38
- RTHTTEQPYTCSICRRNFSRRSSL — higher, 3.25
- RTHTREQPYTCSICRRNFSRRSSL — higher, 3.07
- RTHTMEQPYTCSICRRNFSRRSSL — higher, 2.86
- RTHTDEQPYTCSICRRNFSRRSSL — higher, 3.06
- RTHTEEQPYTCSICRRNFSRRSSL — higher, 3.45
- RTHTCEQPYTCSICRRNFSRRSSL — higher, 4.64
- RTHTQEQPYTCSICRRNFSRRSSL — higher, 2.81
- RTHTNEQPYTCSICRRNFSRRSSL — higher, 2.81
- RTHTPEQPYTCSICRRNFSRRSSL — higher, 2.78
- RTHTSEQPYTCSICRRNFSRRSSL — lower, 2.61
- RTHTAEQPYTCSICRRNFSRRSSL — higher, 2.98
- RTHTYEQPYTCSICRRNFSRRSSL — lower, 2.21
- RTHTHEQPYTCSICRRNFSRRSSL — higher, 3.52
- RTHTWEQPYTCSICRRNFSRRSSL — lower, 2.55
- RTHTKEQPYTCSICRRNFSRRSSL — lower, 2.74
